Measurements as given in patent US20080254026A1.

Tests used:
Experiment in all cases: cell-based or functional assay
[1] = target: human CD40 on normal human B cells (PBMC or purified B cells) (human) (UniProt P25942)
[2] = target: human CD20 on the surface of lymphoma cell lines (Ramos or Daudi) (human) (UniProt P11836)
CD20 (human) = CD20 (human) (UniProt P11836)
[3] = target: human CD40 antigen expressed on the surface of cells (human) (UniProt P25942)
[4] = target: human CD40 antigen on the surface of B cells in human PBMC (human) (UniProt P25942)
[5] = target: human CD40 on the surface of B cells within PBMC from normal human subjects (human) (UniProt P25942)
Sequence of human CD40 on the surface of B cells within PBMC from normal human subjects (human) (P25942 20-277): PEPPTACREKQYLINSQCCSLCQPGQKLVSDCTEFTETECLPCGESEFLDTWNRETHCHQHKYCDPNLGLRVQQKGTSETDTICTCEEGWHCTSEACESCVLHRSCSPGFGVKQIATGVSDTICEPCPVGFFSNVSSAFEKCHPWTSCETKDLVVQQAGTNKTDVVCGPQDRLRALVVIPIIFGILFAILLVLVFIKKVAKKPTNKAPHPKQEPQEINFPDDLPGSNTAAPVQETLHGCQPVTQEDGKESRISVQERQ

Sequence of human CD40 on normal human B cells (PBMC or purified B cells) (human) (P25942 20-277): as above
Sequence of human CD40 antigen on the surface of B cells in human PBMC (human) (P25942 20-277): as above
Sequence of CD40 ligand expressed on formaldehyde-fixed CHO cells (P29965 whole entry): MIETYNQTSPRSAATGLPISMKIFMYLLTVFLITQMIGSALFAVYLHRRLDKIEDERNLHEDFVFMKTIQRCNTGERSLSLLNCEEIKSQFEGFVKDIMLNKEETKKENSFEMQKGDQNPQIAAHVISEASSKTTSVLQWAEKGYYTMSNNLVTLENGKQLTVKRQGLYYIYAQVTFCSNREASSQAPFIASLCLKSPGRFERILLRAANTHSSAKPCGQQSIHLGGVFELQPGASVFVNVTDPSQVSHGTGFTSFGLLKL
Sequence of CD40 ligand on formaldehyde-fixed CHO transfectant cells (P29965 whole entry): as above
Sequence of human CD20 on the surface of lymphoma cell lines (Ramos or Daudi) (human) (P11836 whole entry): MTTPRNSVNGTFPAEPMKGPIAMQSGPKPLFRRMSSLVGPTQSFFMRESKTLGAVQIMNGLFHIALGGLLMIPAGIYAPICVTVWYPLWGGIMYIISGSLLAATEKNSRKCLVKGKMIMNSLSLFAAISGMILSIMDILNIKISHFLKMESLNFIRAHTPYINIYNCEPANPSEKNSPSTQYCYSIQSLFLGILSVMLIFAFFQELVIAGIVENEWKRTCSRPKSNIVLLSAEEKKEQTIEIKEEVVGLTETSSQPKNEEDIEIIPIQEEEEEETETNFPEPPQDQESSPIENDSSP
Sequence of CD20 (human) (P11836 whole entry): as above
Sequence of human CD40 antigen expressed on the surface of cells (human) (P25942 20-277): as the sequence (P25942 20-277) above

## CD40 ligand on formaldehyde-fixed CHO transfectant cells (from UniProt P29965 1-261)
[1]
  Average Stimulation Index (SI), B cells + CHO-CD40L: 145
  S. index (1) = CPM (B cells + CHO-CD40L)/CPM (B cells alone); B cell-004 Donor 1: 7.49
  S. index (1) = CPM (B cells + CHO-CD40L)/CPM (B cells alone); B cell-004 Donor 2: 336
  S. index (1) = CPM (B cells + CHO-CD40L)/CPM (B cells alone); B cell-005 Donor 3: 92

## rituximab (Rituxan; IDEC-C2B8) (antibody)
[2]
  % lysis (Ramos or Daudi; ADCC-012 Calcien AM, huNK E:T 10; 1 ug/ml): 66%
  % lysis - % lysis IgG1 (Ramos or Daudi; ADCC-006 Alarmor Blue, huNK E:T 2; 0.01 ug/ml): 33%
  % lysis - % lysis IgG1 (Ramos or Daudi; ADCC-013 51Cr, PBMC E:T 100; 0.001 ug/ml): 0.35%
CD20 (human)
  % lysis (ADCC-012 Calcein AM, huNK E:T 10, 1 ug/ml): 66%
  % lysis - % lysis IgG1 (ADCC-006 Alarmor Blue, huNK E:T 2, 0.01 ug/ml): 33%
  % lysis - % lysis IgG1 (ADCC-013 51Cr, PBMC E:T 100, 0.001 ug/ml): 0.35%

## CD40 ligand expressed on formaldehyde-fixed CHO cells (from UniProt P29965 1-261)
[3]
  average stimulation index (SI), proliferation of total PBMC: 7.41
[4]
  Average SI of PBMC; PBMC + CHO-CD40L, index (1): 5.09
  PBMC proliferation (3H-thymidine), CPM of PBMC + CHO-CD40L; PBMC-010: 5280 CPM
  PBMC proliferation (3H-thymidine), CPM of PBMC + CHO-CD40L; PBMC-011 Donor#1: 8250 CPM
  PBMC proliferation (3H-thymidine), CPM of PBMC + CHO-CD40L; PBMC-011 Donor#2: 11600 CPM
  PBMC proliferation (3H-thymidine), CPM of PBMC + CHO-CD40L; PBMC-011 Donor#3: 7960 CPM
  PBMC proliferation (3H-thymidine), CPM of PBMC + CHO-CD40L; PBMC-011 Donor#4: 14300 CPM
  PBMC proliferation (3H-thymidine), CPM of PBMC + CHO-CD40L; PBMC-014: 8790 CPM
  PBMC proliferation (3H-thymidine), CPM of PBMC + CHO-CD40L; PBMC-015 Donor#1: 12900 CPM
  PBMC proliferation (3H-thymidine), CPM of PBMC + CHO-CD40L; PBMC-015 Donor#2: 19100 CPM
  PBMC proliferation (3H-thymidine), CPM of PBMC + CHO-CD40L; PBMC-015 Donor#3: 19800 CPM
  PBMC proliferation (3H-thymidine), CPM of PBMC + CHO-CD40L; PBMC-016: 15800 CPM
  index (1) = (PBMC + CHO-CD40L)/PBMC; PBMC-010: 3.73
  index (1) = (PBMC + CHO-CD40L)/PBMC; PBMC-011 Donor#1: 3.86
  index (1) = (PBMC + CHO-CD40L)/PBMC; PBMC-011 Donor#2: 4.87
  index (1) = (PBMC + CHO-CD40L)/PBMC; PBMC-011 Donor#3: 2.46
  index (1) = (PBMC + CHO-CD40L)/PBMC; PBMC-011 Donor#4: 3.41
  index (1) = (PBMC + CHO-CD40L)/PBMC; PBMC-014: 3.74
  index (1) = (PBMC + CHO-CD40L)/PBMC; PBMC-015 Donor#1: 3.94
  index (1) = (PBMC + CHO-CD40L)/PBMC; PBMC-015 Donor#2: 3.14
  index (1) = (PBMC + CHO-CD40L)/PBMC; PBMC-015 Donor#3: 8
  index (1) = (PBMC + CHO-CD40L)/PBMC; PBMC-016: 13.8
[5]
  Average SI of PBMC; PBMC + CHO-CD40L, index (1): 11.9
  Average Stimulation index; PBMC + CHO-CD40L, S. index (1): 22
  PBMC + CHO-CD40L, CPM; Immoblize-004: 11700 CPM
  PBMC + CHO-CD40L, CPM; PBMC-012: 6810 CPM
  PBMC + CHO-CD40L, CPM; PBMC-025 Donor#1: 42300 CPM
  PBMC + CHO-CD40L, CPM; PBMC-025 Donor#2: 15000 CPM
  PBMC + CHO-CD40L, CPM; PBMC-026 Donor#1: 18300 CPM
  PBMC + CHO-CD40L, CPM; PBMC-026 Donor#2: 18100 CPM
  PBMC + CHO-CD40L, CPM; PBMC-027 Donor#1: 13000 CPM
  PBMC + CHO-CD40L, CPM; PBMC-027 Donor#2: 11900 CPM
  PBMC + CHO-CD40L, CPM; PBMC-028 Donor#1: 22500 CPM
  PBMC + CHO-CD40L, CPM; PBMC-028 Donor#2: 54900 CPM
  PBMC + CHO-CD40L, CPM; PBMC-029 Donor#1: 10100 CPM
  PBMC + CHO-CD40L, CPM; PBMC-029 Donor#2: 23100 CPM
  PBMC + CHO-CD40L, CPM; PBMC-030 Donor#1: 57200 CPM
  PBMC + CHO-CD40L, CPM; PBMC-030 Donor#2: 53900 CPM
  PBMC + CHO-CD40L, CPM; PBMC-032 Donor#1: 15300 CPM
  PBMC + CHO-CD40L, S. index (1); Immoblize-004: 13.7
  PBMC + CHO-CD40L, S. index (1); PBMC-012: 30.3
  PBMC + CHO-CD40L, index (1); PBMC-025 Donor#1: 10.4
  PBMC + CHO-CD40L, index (1); PBMC-025 Donor#2: 6.63
  PBMC + CHO-CD40L, index (1); PBMC-026 Donor#1: 8.78
  PBMC + CHO-CD40L, index (1); PBMC-026 Donor#2: 26.7
  PBMC + CHO-CD40L, index (1); PBMC-027 Donor#1: 4.75
  PBMC + CHO-CD40L, index (1); PBMC-027 Donor#2: 8.89
  PBMC + CHO-CD40L, index (1); PBMC-028 Donor#1: 5.26
  PBMC + CHO-CD40L, index (1); PBMC-028 Donor#2: 25.6
  PBMC + CHO-CD40L, index (1); PBMC-029 Donor#1: 16.5
  PBMC + CHO-CD40L, index (1); PBMC-029 Donor#2: 2.99
  PBMC + CHO-CD40L, index (1); PBMC-030 Donor#1: 13.7
  PBMC + CHO-CD40L, index (1); PBMC-030 Donor#2: 16.2
  PBMC + CHO-CD40L, index (1); PBMC-032 Donor#1: 8.45
